Measurements from patent US6348317B1, “Fluorescent and DNA cleavage properties of peptide/dye conjugates” (The Arizona Board of Regents, priority 1999, dated 2002).
Where two headings read alike, the source gives them in different places. No end group written: not given here.

How the values were obtained:
[1] = molecular target: dsDNA; conditions: cited from earlier work
[2] = molecular target: fluorescein labeled GRE2 sequence dsDNA (F-GRE2); test: Total fluorescence quenching (energy transfer) of fluorescein labeled DNA; assay type: binding
Procedure: Fluorescence Measurements. Steady state fluorescence anisotropy measurements were carried out in 20 mM Tris (pH 7.9), 30 mM NaCl, 20 mM KCl, 1 mM MgCl2, and 5% glycerol. […] DNA samples used were either the non-labeled sequences shown in FIG. 2 or a fluorescein labeled duplex with a sequence matching GRE2 (FIG. 2).
For fluorescein labeled DNA measurements, the excitation wavelength was 491 nm and the emission was recorded at 521 nm with a 1.0 nm slit width. Titrations were performed holding the concentration of fluorescein-labeled DNA constant and increasing the concentration of TO, ZF or TO-ZF as indicated. To correct for the small amount of background fluorescence from TO in these measurements, control experiments were performed in parallel using DNA that was not fluorescein labeled, but was otherwise identical to the labeled DNA fragments. The thiazole orange fluorescence intensity measured in the control experiments was subtracted from the total fluorescence intensity for each data point. Under the excitation conditions of these measurements, the contribution to fluorescence by TO at 521 nm was less than 5% of the maximum fluorescence signal observed in the experiment. Even at the point in the titration where the maximum quenching of fluorescein fluorescence was observed (the point of lowest total fluorescence in the measurement), less than half of the fluorescence was due to TO, and this could accurately be removed by subtraction of the control value. Each point is an average of 60 measurements, and each titration was performed independently three times.
Total fluorescence data were collected in parallel to the anisotropy measurements and were calculated from raw data as the fluorescence intensity in the vertical plane plus two times the fluorescence intensity of the horizontal plane, (TF=Ivv+2Ivh). These values were used to determine the percent of the maximum fluorescence for each point along the titration and fit to equation 2. [formula] […]
Fluorescence changes upon binding of TO, ZF and TO-ZF to GRE containing duplex DNA. Equilibrium binding of the non-labeled zinc finger (ZF), unconjugated thiazole orange (TO) and thiazole orange-zinc finger conjugate (TO-ZF) to fluorescein labeled GRE2 sequence dsDNA was measured by both fluorescence anisotropy and total fluorescence. […] For fluorescein fluorescence, excitation was at 491 nm and emission was detected at 521 nm. […] Changes in the steady-state anisotropy of the fluorescein fluorescence from the labeled GRE sequence containing DNA (F-GRE2) can arise from two sources. […] By comparison, the amino acid zinc finger Xfin-31 was determined to have a dissociation constant of approximately 1 μM, M. S. Lee, et al., FEBS 279:289-294 (1991), whereas, the 66 amino acid zinc finger from GATA-1 has a dissociation constant of 10 nM. […]

[3] = molecular target: poly(dG)-poly(dC) 20-mer; test: Thiazole orange total fluorescence titration with non-target DNA; conditions: 50 nM TO-ZF or TO; fit to equation 2; read-out: dissociation constant, non-specific binding
[4] = system: Hin recombinase consensus sequence (hixL) dsDNA; test: Total fluorescence reverse titration of conjugate with nonlabeled consensus DNA; assay type: binding, S. typhimurium
Procedure: Fluorescence Measurements. Steady state fluorescence anisotropy and total fluorescence measurements were performed as forward and reverse titrations, respectively, as described previously, M. Thompson, et al., supra, 2000. Forward titrations of the tetramethylrhodamine labeled DNA (TMR-DNA) with nonlabeled DNA-binding domains were performed at 10 nM TMR-DNA. Vertical excitation was at 542 nm with detection in the verticle and horizontal planes at 582 nm. Reverse titrations of 1 nM of the appropriate conjugate were titrated with nonlabeled DNA. Excitation and emission detection was at 480 nm and 510 nm for oxazole yellow and 510 nm and 535 nm for thiazole orange samples. Salt dependence studies were performed by titrating an appropriate amount of 1 M NaCl in the same Tris buffer to yield the indicated final salt concentration. Temperature dependence studies were performed by incubating each sample for 30 minutes at the given temperature. The temperature of the sample was held constant by pumping water through the cuvette holder from a temperature equilibrated water bath. Each titration was performed at least 3 times.
Determination of thermodynamic functions. The contribution of the hydrophobic effect and the polyelectrolyte effect to the stability of the conjugate or DNA-binding domain—DNA complex is assessed by analysis of the dependence of the observed association equilibrium constant Kobs for a range of temperatures and salt concentrations as in the following: [formula]
where, [P] eq is the concentration of the conjugate or DNA-binding domain, [D] eq is the concentration of DNA, and [PD] eq is the concentration of bound complex at equilibrium. The analysis is based on the assumption that this is a single-step bimolecular reaction.
Specific binding by the dye labeled peptides (conjugates). The binding affinity of the two dye labeled peptides comprising the Hin recombinase and Tc3 transposase DNA-binding domains conjugated to oxazole yellow and thiazole orange, respectively, were determined. In this case, the total fluorescence intensity can be used to determine the binding affinity by these systems. […] In addition, the bound and free populations of the conjugate, and therefore the dye, present at equilibrium have such an extreme increase in quantum yield (˜1000-5000-fold) that the total fluorescence from the system is a very sensitive and accurate way to monitor binding. Note that each oligonucleotide shown was hybridized to […] forming a dsDNA segment.
In FIG. 9, semi-log plot of the total fluorescence of I nM conjugate is plotted as the log of the concentration of nonlabeled DNA containing each respective consensus sequence. The solid lines represent a fit for the percent of the maximal fluorescence values at 298 K, 0.150 M Na+, (●),313 K, 0.150 M Na+ (t) and 298 K, 0.250 M Na+(▪). The binding constants (Kobs) determined from these curves and the corresponding binding free energies (DG°) are given in Table 1 for the range of salt concentrations (0.15 to 0.25 M Na+) and temperatures (275 to 313 K) investigated. The equilibrium constant decreases 7- and 10-fold for the TOTc3 and YOHin, respectively, when the salt concentration is increased from 0.15 to 0.25 M salt.

[5] = molecular target: T1, TO-ZF (thiazole orange-GR zinc finger conjugate) (UniProt P06536 SEQ:1-28); test: TO fluorescence titration; single G to A change in half-site; conditions: protein: synthetic; tags: thiazole orange on Lys epsilon-amine (first residue coupled to resin); synthetic solid-phase peptide (text states 29 aa, listing 28 aa), Zn-loaded
T1 chain: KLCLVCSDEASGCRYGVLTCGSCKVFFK

[6] = molecular target: T1, TO-ZF (thiazole orange-GR zinc finger …); test: same as poly(dG)-poly(dC) within experimental error; conditions: protein: synthetic; tags: thiazole orange on Lys epsilon-amine (first residue coupled to resin); synthetic solid-phase peptide (text states 29 aa, listing 28 aa), Zn-loaded
[7] = molecular target: T1, TO-ZF (thiazole orange-GR zinc finger …); test: TO fluorescence titration; single base change in half-site; conditions: protein: synthetic; tags: thiazole orange on Lys epsilon-amine (first residue coupled to resin); synthetic solid-phase peptide (text states 29 aa, listing 28 aa), Zn-loaded
[8] = molecular target: T2, TOTc3 (thiazole orange-Tc3 transposase DNA-binding domain, residues 202-253) (UniProt P34257 SEQ:1-51); test: 298 K, 0.150 M Na+; 275 K 22e6, 293 K 66e6, 313 K 22e6; 298 K 0.250 M Na+ 17e6; conditions: protein: synthetic; tags: thiazole orange covalently attached; synthetic solid-phase peptide (text states 52 aa, listing 51 aa)
T2 chain: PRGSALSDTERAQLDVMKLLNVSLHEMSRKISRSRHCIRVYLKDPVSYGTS

[9] = molecular target: T1, TO-ZF (thiazole orange-GR zinc finger …); test: TO fluorescence titration; same buffer; conditions: protein: synthetic; tags: thiazole orange on Lys epsilon-amine (first residue coupled to resin); synthetic solid-phase peptide (text states 29 aa, listing 28 aa), Zn-loaded
[10] = molecular target: T3, YOHin (oxazole yellow-Hin recombinase DNA-binding domain, residues 139-190) (UniProt P03013 SEQ:1-52); test: 298 K, 0.150 M Na+; 275 K 22e6, 293 K 143e6, 313 K 29e6; 298 K 0.250 M Na+ 14e6; conditions: protein: synthetic; tags: oxazole yellow covalently attached; synthetic solid-phase peptide
T3 chain: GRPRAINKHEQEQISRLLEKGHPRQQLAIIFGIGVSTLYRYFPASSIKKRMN

[11] = molecular target: T1, TO-ZF (thiazole orange-GR zinc finger …); test: TO fluorescence titration; 20 mM Tris pH 7.9, 30 mM NaCl, 20 mM KCl, 1 mM MgCl2, 5% glycerol, ZnCl2; conditions: protein: synthetic; tags: thiazole orange on Lys epsilon-amine (first residue coupled to resin); synthetic solid-phase peptide (text states 29 aa, listing 28 aa), Zn-loaded
[12] = molecular target: T1, TO-ZF (thiazole orange-GR zinc finger …); test: TO fluorescence titration; two base changes vs GRE; conditions: protein: synthetic; tags: thiazole orange on Lys epsilon-amine (first residue coupled to resin); synthetic solid-phase peptide (text states 29 aa, listing 28 aa), Zn-loaded

CN1C(=Cc2cc[n+](C)c3ccccc23)Sc2ccccc21 [TO, thiazole orange]
Kd ([1]; 5-fold higher salt concentration, Nygren et al., Biopolymers 1998, read-out: dissociation constant for binding to dsDNA): ~3000 nM | Kd ([1]; Haugland 1996, Netzel et al. 1995, read-out: Kd (moderate affinity DNA binding)): ~10000 nM | Kd ([2]; 50 nM F-GRE2, interpretation cautioned (many binding sites), read-out: dissociation constant from quenching curve): 2400 nM | change in total fluorescein fluorescence over the titration ([2]; excitation 491 nm, emission 521 nm): large decreases in steady state fluorescence | Kd [3]: 2400 nM

YOHin: oxazole yellow conjugated to the 52 amino acid Hin DNA binding domain, residues 139-190 of Hin recombinase (GRPRAINKHEQEQISRLLEKGHPRQQLAIIFGIGVSTLYRYFPASRIKKRMN; also: oxazole yellow conjugated, site not given here; UniProt P03013 139-190, looked up, fragment)
decrease of equilibrium constant when salt is increased from 0.15 to 0.25 M ([4]; 0.15 to 0.25 M salt): 10 fold | Kobs ([4]; 275 K, 0.150 M Na+): 22 (M^−1) × 10^−6 | ΔG° ([4]; 275 K, 0.150 M Na+): -9.2 kcal/mol | Kobs ([4]; 278 K, 0.150 M Na+): 21 (M^−1) × 10^−6 | ΔG° ([4]; 278 K, 0.150 M Na+): -9.3 kcal/mol | Kobs ([4]; 283 K, 0.150 M Na+): 40 (M^−1) × 10^−6 | ΔG° ([4]; 283 K, 0.150 M Na+): -9.8 kcal/mol | Kobs ([4]; 288 K, 0.150 M Na+): 61 (M^−1) × 10^−6 | ΔG° ([4]; 288 K, 0.150 M Na+): -10.3 kcal/mol | Kobs ([4]; 293 K, 0.150 M Na+): 143 (M^−1) × 10^−6 | ΔG° ([4]; 293 K, 0.150 M Na+): -10.9 kcal/mol | Kobs ([4]; 298 K, 0.150 M Na+): 83 (M^−1) × 10^−6 | ΔG° ([4]; 298 K, 0.150 M Na+): -10.8 kcal/mol | Kobs ([4]; 298 K, 0.175 M Na+): 67 (M^−1) × 10^−6 | ΔG° ([4]; 298 K, 0.175 M Na+): -10.7 kcal/mol | Kobs ([4]; 298 K, 0.200 M Na+): 37 (M^−1) × 10^−6 | ΔG° ([4]; 298 K, 0.200 M Na+): -10.3 kcal/mol | Kobs ([4]; 298 K, 0.225 M Na+): 29 (M^−1) × 10^−6 | ΔG° ([4]; 298 K, 0.225 M Na+): -10.2 kcal/mol | Kobs ([4]; 298 K, 0.250 M Na+): 14 (M^−1) × 10^−6 | ΔG° ([4]; 298 K, 0.250 M Na+): -9.8 kcal/mol | Kobs ([4]; 303 K, 0.150 M Na+): 60 (M^−1) × 10^−6 | ΔG° ([4]; 303 K, 0.150 M Na+): -10.8 kcal/mol | Kobs ([4]; 308 K, 0.150 M Na+): 41 (M^−1) × 10^−6 | ΔG° ([4]; 308 K, 0.150 M Na+): -10.7 kcal/mol | Kobs ([4]; 313 K, 0.150 M Na+): 29 (M^−1) × 10^−6 | ΔG° ([4]; 313 K, 0.150 M Na+): -10.7 kcal/mol

B1: GRE3 (dsDNA)
DNA 1: TCATACATCTAACTATTCTATCA
DNA 2: TGATAGAATAGTTAGATGTATGA
Kd [5]: 57 nM

B2: (dGdC)20 (dsDNA)
DNA 1: GCGCGCGCGCGCGCGCGCGCGCGCGCGCGCGCGCGCGCGC
DNA 2: GCGCGCGCGCGCGCGCGCGCGCGCGCGCGCGCGCGCGCGC
modifications: [none]
Kd [6]: ~1100 nM

B3: GRE4 (dsDNA)
DNA 1: TCATACATCTAACTGTCCTATCA
DNA 2: TGATAGGACAGTTAGATGTATGA
Kd [7]: 220 nM

B4: Tc3 consensus oligonucleotide (dsDNA)
DNA 1: ATCGGCACGATGCTAGTTCTATAGGACCCCCC
DNA 2: GGGGGGTCCTATAGAACTAGCATCGTGCCGAT
Ka [8]: 2.45e+08 M⁻¹

B5: GRE2 (dsDNA)
DNA 1: TGATACGGCTGACTGTTCTATGA
DNA 2: TCATAGAACAGTCAGCCGTATCA
Kd [9]: 25 nM

B6: hixL (Hin consensus) oligonucleotide (dsDNA)
DNA 1: TCTTATCAAAAACACTATCGTCGCACGGCTAC
DNA 2: GTAGCCGTGCGACGATAGTGTTTTTGATAAGA
Ka [10]: 8.3e+07 M⁻¹

B7: GRE1 (dsDNA)
DNA 1: TCATACCACTAACTGTTCTATCA
DNA 2: TGATAGAACAGTTAGTGGTATGA
Kd [11]: 25 nM

B8: ERE (dsDNA)
DNA 1: TCATACATCTAACTGACCTATCA
DNA 2: TGATAGGTCAGTTAGATGTATGA
Kd [12]: 810 nM
